Reference: paper PMC4230784 (Molecular Biology of the Cell, 2014)

Target: flag-TBC1D9B, full length, wild type (human, UniProt Q66K14-1 1-1250)
Assay: co-IP

flag-TBC1D9B, full length, wild type, sequence (Q66K14 whole entry): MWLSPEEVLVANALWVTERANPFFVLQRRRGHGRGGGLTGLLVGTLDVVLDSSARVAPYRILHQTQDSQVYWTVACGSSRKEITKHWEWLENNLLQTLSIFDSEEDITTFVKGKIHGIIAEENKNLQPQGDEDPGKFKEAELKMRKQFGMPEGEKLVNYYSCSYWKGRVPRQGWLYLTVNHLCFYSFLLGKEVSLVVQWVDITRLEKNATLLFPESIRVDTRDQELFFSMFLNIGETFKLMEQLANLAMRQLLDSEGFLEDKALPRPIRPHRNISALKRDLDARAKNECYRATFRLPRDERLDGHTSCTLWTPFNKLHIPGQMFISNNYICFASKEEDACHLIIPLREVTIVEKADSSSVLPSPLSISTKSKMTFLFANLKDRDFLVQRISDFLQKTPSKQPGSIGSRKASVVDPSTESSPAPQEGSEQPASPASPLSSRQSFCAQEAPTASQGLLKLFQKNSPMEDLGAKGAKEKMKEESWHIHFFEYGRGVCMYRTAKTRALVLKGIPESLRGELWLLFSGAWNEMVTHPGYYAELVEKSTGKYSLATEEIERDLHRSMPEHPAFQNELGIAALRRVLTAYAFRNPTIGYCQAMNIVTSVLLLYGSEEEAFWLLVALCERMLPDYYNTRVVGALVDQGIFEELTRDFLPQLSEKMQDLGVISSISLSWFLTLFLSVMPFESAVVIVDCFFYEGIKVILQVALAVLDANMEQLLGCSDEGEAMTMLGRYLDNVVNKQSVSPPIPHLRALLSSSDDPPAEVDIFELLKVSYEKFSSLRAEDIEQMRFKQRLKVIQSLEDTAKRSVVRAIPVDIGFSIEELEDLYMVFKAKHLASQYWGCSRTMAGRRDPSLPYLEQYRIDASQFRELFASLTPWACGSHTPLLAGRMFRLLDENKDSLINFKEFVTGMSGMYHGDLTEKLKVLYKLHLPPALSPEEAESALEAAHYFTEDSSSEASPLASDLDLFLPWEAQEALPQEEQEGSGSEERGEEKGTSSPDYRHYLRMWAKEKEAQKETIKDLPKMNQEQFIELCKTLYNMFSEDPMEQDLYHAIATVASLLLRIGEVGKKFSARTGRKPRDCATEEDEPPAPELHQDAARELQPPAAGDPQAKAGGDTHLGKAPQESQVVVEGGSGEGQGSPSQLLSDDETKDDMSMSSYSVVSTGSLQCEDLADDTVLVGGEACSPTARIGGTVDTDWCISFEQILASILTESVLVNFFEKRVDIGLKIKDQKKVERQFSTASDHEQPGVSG

fold coimmunoprecipitated against Rab11a-WT or Rab11a-SN: ~5 fold
B1: GFP-Rab11aQ70L (natural protein, UniProt P62491 1-216, looked up)
chain: MGTRDDEYDYLFKVVLIGDSGVGKSNLLSRFTRNEFNLESKSTIGVEFATRSIQVDGKTIKAQIWDTAGLERYRAITSAYYRGAVGALLVYDIAKHLTYENVERWLKELRDHADSNIVIMLVGNKSDLRHLRAVPTDEARAFAEKNGLSFIETSALDSTNVEAAFQTILTEIYRIVSQKQMSDRRENDMSPSNNVVPIHVPPTTENKPKVQCCQNI
